B1: DnaA initiator-associating protein DiaA (Escherichia coli (strain K12)), P66817 (parent)
chain: MQERIKACFTESIQTQIAAAEALPDAISRAAMTLVQSLLNGNKILCCGNGTSAANAQHFAASMINRFETERPSLPAIALNTDNVVLTAIANDRLHDEVYAKQVRALGHAGDVLLAISTRGNSRDIVKAVEAAVTRDMTIVALTGYDGGELAGLLGPQDVEIRIPSHRSARIQEMHMLTVNCLCDLIDNTLFPHQDD
partner: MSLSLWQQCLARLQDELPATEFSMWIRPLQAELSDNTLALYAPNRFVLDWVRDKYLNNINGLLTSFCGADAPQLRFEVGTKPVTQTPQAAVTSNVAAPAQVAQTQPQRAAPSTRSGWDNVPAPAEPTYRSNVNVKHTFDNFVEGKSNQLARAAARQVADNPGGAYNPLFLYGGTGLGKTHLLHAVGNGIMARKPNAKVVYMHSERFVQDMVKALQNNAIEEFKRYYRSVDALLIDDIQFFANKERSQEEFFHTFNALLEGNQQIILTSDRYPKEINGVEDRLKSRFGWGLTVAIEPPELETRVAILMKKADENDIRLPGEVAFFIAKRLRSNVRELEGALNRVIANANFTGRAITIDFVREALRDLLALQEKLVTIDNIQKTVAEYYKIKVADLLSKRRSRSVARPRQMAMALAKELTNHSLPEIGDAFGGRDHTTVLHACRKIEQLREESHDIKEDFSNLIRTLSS

Variants of: B1
Conditions: with dnaa_ecoli dnaA

| Variant | effect of a mutation on the interaction |
| --- | --- |
| P72A | decreasing interaction |
| P72S | decreasing interaction |
| N83D | decreasing interaction |

Further lines, results first:

| effect of a mutation on the interaction | Variant |
| --- | --- |
| decreasing interaction | K101E |
| disrupting interaction | L190P |
| disrupting interaction | L190A |
| disrupting interaction | F191S |
| disrupting interaction | F191L |

Variants of: B1
Conditions: with dnaa_ecoli dnaA
Remark: another data set of the same source

| effect of a mutation on the interaction | Variant |
| --- | --- |
| decreasing interaction | S52F |
